This is an account of results in publication PMC12743552, “Key residues regulating von Willebrand factor A1/A2 interactions: insights from molecular dynamics simulations and experimental validation” (Research and Practice in Thrombosis and Haemostasis, 2025).

Positions count from the first letter of the chain named. Numbers in names are those of the source.

The labels stand for the following.
B1: VWF-A1 mutant A1_mut (D1323A/R1334A/Q1367A) (domain or fragment)
chain: QEPGGLVVPPTDAPVSPTTLYVEDISEPPLHDFYCSRLLDLVFLLDGSSRLSEAEFEVLKAFVVDMMERLRISQKWVRVAVVEYHAGSHAYIGLKDAKRPSELRRIASQVKYAGSQVASTSEVLKYTLFAIFSKIDRPEASRITLLLMASQEPQRMSRNFVRYVQGLKKKKVIVIPVGIGPHANLKQIRLIEKQAPENKAFVLSSVDELEQQRDEIVSYLCDLAPEAPPPTLPPD
notes: von Willebrand factor, A1 domain, residues Q1238-D1472, with D1323A, R1334A and Q1367A; source: HEK293F cells, culture medium collected, purified (Ni2+-Hi-Trap chelating column); not shown: His tag, N-terminal, kept
B2: VWF-A2 mutant A2_mut (V1546A/R1575A/E1598A) (domain or fragment)
chain: MAQVTVGPGLLGVSTLGPKRNSMVLDVAFVLEGSDKIGEADFNRSKEFMEEVIQRMDVGQDSIHVTVLQYSYMATVEYPFSEAQSKGDILQRVREIRYQGGNATNTGLALRYLSDHSFLVSQGDRAQAPNLVYMVTGNPASDEIKRLPGDIQVVPIGVGPNANVQELERIGWPNAPILIQDFETLPREAPDLVLQRCCSG
notes: von Willebrand factor, A2 domain, residues M1473-G1672, with V1546A, R1575A and E1598A; source: HEK293F cells, culture medium collected, purified (Ni2+-Hi-Trap chelating column); not shown: His tag, N-terminal, kept
B3: recombinant VWF-A2 (von Willebrand factor A2 domain, amino acids M1473-G1672), wild type (domain or fragment)
chain: B2 chain with A74V, A103R, A126E
modifications: biotinylated in the BLI assay (site not stated); not said to be biotinylated in the AFM assay
notes: von Willebrand factor, A2 domain, residues M1473-G1672; cloned from a full-length VWF plasmid (MiaoLingBio); Secreted into the medium of HEK293F cells; The discussion calls the host HEK293 cells; source: HEK293F cells, culture medium collected, purified (Ni2+-Hi-Trap chelating column); not shown: His tag, N-terminal, kept

Experiment [1] deals with von Willebrand factor A2 G1481-R1668 (Homo sapiens) (UniProt P04275). The conditions noted are these: cited from earlier work.
Experiment [2] has as its target B3. The experiment is described as follows: atomic force microscopy (adhesion frequency and rupture force); VWF-A2 (15 ug/mL) held on the cantilever tip and VWF-A1 or its variants (15 ug/mL) on polystyrene dishes, each through adsorbed mouse anti-His mAb; blocked with 2% BSA; approach-retraction speed 200 nm/s in 2% BSA; 100 contact cycles a point. The settings on record: both partners purified.

Experiment [3] deals with T1, recombinant VWF-A1 (von Willebrand factor A1 domain, amino acids Q1238-D1472), wild type (UniProt P04275 1238-1472).
T1 construct: von Willebrand factor, A1 domain, residues Q1238-D1472; cloned from a full-length VWF plasmid (MiaoLingBio); Secreted into the medium of HEK293F cells; The tag is 6xHis to judge from the anti-6xHis antibody used for capture; also called WT A1; WT VWF-A1; source: HEK293F cells, culture medium collected, purified (Ni2+-Hi-Trap chelating column); not shown: His tag, N-terminal, kept
The experiment is described as follows: BLI; biotinylated A2 (10 ug/mL) immobilised on streptavidin biosensors, quenched with biocytin; A1 125-4000 nM in solution; Octet R8, 30 °C, 1000 rpm; PBS with 0.02% Tween-20 and 0.1% BSA; global fit to a 1:1 Langmuir model. The conditions noted are these: both partners purified.

For experiment [4], the target named is B1. Described as above. The conditions noted are these: both partners purified.

Regarding “von Willebrand factor A1 A1 (from UniProt P04275)”, the Kd in experiment [1] is 0.0649 µM.

With B1, in experiment [2], the adhesion frequency came out at 14.5%, the average rupture force amounted to 41.5 pN and the “central peak value (XC) of the rupture force distribution” value worked out at 35 pN.

In the case of B2, in experiment [3], the Kd was 4.2 µM, the koff came out at 0.046 s⁻¹ and the kon amounted to 11000 M⁻¹ s⁻¹.

For B3, in experiment [3], the Kd was determined as 2.16 µM, the koff came to 0.037 s⁻¹ and the kon was determined as 17000 M⁻¹ s⁻¹. In experiment [4], this molecule came in with a Kd of 6.1 µM, a koff of 0.081 s⁻¹ and a kon of 13000 M⁻¹ s⁻¹.
